# Test results published in the supplement of paper PMC9170038.
# System: K4 kissing-loop RNA reporter
# Experiment: apparent KD of K4 kissing-loop reporter; higher = weaker reporter binding
# Conditions: Eterna round: R107
# Method: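 RNA-MaP round R107: designed RNA switches with theophylline, tryptophan, arginine or FMN aptamers are transcribed on-chip within common flanks. They are titrated with a labelled K4 kissing-loop RNA reporter in RNA-MaP buffer (100 mM Tris pH 7.5, 80 mM KCl, 4 mM MgCl2), without ligand or with the indicated ligand. Median apparent KD per design.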
# [1] = input ligand: theophylline 20 uM
# [2] = input ligand: tryptophan 2.4 mM
# 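Further: bound reporter read as fluorescence of individual clusters on recovered sequencing chips by microscopy, with normalized cluster intensities fitted with a binding model.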
Sequence,apparent KD of K4 kissing-loop reporter (input ligand: FMN 200 uM) [nM],apparent KD of K4 kissing-loop reporter (input ligand: arginine 13.2 mM) [nM],apparent KD of K4 kissing-loop reporter (input ligand: none) [nM],apparent KD of K4 kissing-loop reporter [1] [nM],apparent KD of K4 kissing-loop reporter [2] [nM]
CCGAUACAUUAUUCUACGGCCGAGAGCGAUACCAGCCAAAUUUAUGGCCCUUGGCAGCGCAGAUGCAGUGAUGUUGCAUACAUAC [Same State Theophylline A GF 18],102,158,95.6,166,83.2
GAAUAAUAACAUGAGUGAUGUUCAUGUAAACGAGGACCGGUACGGCCGCCACUCGUUUCUCAUGUAAGCCGUACCAAUAACAAUA [KL-XTryp-A5 #analogue],146,142,151,147,237
UUUAUGAUGUCGGCCGCCACUGGAUUAAUAUGUGUGUAAUCUAGUUCUGAGUGAUGUUUAGAGUCCAGGACCGGGACAUUUGUUA [#11 K4 Tryptophan B Exclusion],542,373,522,649,452
CUGACGCUGAUACGGUGGCCGAUGGUCGUGCGAGGACCGGUACGGCCGCCACUCGCAUGAGUGAUGUUCAUGUGUCGUCGUCGUC [#06 K4 Tryptophan A Exclusion],135,115,130,106,142
AAAAGAAAGUCGGCCGCCACUCAACGCAGUGAUGUUGCAAGACAGAAGAGCAGUGAUGUUGCCCAGAGGACCGGGACACAAGGCC [Same State Typtophan B GF 3],352,384,444,401,309
CCUAUCUCGUACGAUACCAGACUAUGAUCUUUGAUCAAUGCCAUCACCGAGUGAUGUUCGGUCCCUUGGCAGCGUAUGAGAUGGG [#12 K4 Theophylline B Exclusion],179,143,170,202,155
GUUCUCGAAACUCAGUGAUGUUGAGUUGCAGAGGAUAUCCGCACAUGGAGAAGGCUGCAGUAAUUUAAAGACUCAGCGGCGCUCC [Riare],112,117,115,120,115
GGCCACGGGCGAGGAUAUGGGCAUGAUUCAUCCUGGAGUGAUGUUCCAGGUCCUACGUUUCUAGCACCAGAAGGCGUUUGUUGCU [Enistein],131,196,215,180,165
CCGAUGGGUACAGGAUAUGCCAGUGAUGUUGGUUUAGAUGGACCCAGAAGGAGACACCAGACGGAGGCAGAAGGGUAGCAAGGGA [Raarriis],140,108,106,100,105
AAUAGGGAGUGAUGUUCCCUCACUUAUGAUACCAGUGCCAUCGGACACCCUUGGCAGCAUACGGGCAGUGAUGUUGUUCUUGGAA [Exclusion Theophylline A GF 25],129,148,156,155,119
AGACCACAAAGUGGUCAGUGUUCGCUCCGGCGAGGACCGGUACGGCCGCCACUCGCGAGUGAUGUUCGCGAGUGGAGCGAACACA [Omei KL Tryp A Exc A v1],88.8,78,88.6,76,86.3
GGGAGUAGUGCGGCCGCCACUGAGAAAGAAGAAGAAUAUAGUGAUGUUAUAUAGGAAUUAAAGAACAGGACCGGGCAUUAGAUUU [SSTRyptB.O],210,208,219,163,143
AUUAAUUUCAGAGGAUAUGCUUUAUUAUUAUUUUUAAAUAAUAUAAGCAGUGAUGUUGCUUUUUAUGCAGAAGGCUGAUUUAUAA [JR_SSFMNB_Sub016],137,397,383,384,360
GGGUGGCAGGCGGCCGCCACUCUGAGCAGCCAGUGAGUGAUGUUCGUGGCGGAAGAAUGUUCGUAGAGGACCGGGUUUGUUGUUC [Same State Tryptophan B GF 22],472,245,297,432,337
AGACUACCACACUGUCAAUAGACAGUGAACUAGGAUAUGCUGAUAAGCAGAAGGAGUGAUGUUCCGAGGUAGUCAAUAAAAUAAU [FmnAX 13 G66],281,246,287,334,289
UAACUUGCAGUGAUGUUGCAAGAACUGGAUACCAGCAUGGAAACAUGCCCUUGGCAGCCAGAAGCUGGCUGAACAUCACGUCAGU [Design5],227,140,308,159,217
